This is an account of results in PMC8208711.

For the test, the target named is human wild-type full-length CC chemokine receptor 5 (CCR5) (human) (UniProt P51681).

In the case of [6P4]CCL5 D5K (ligand), the Ca2+ flux in HEK-CCR5 cells, decrease of Emax against [6P4]CCL5 was determined as 60%.
Next, [6P4]CCL5 D5A (ligand): 30%.
